Holding throughout (test): ELISA; attachment factors coated at 280.0 pmol/mL in carbonate-bicarbonate buffer overnight at 4 C, blocked with 1.0% BSA; P protein (GI.1 or GII.4) 10.0 ug/mL, 1 h at 37 C; detected with anti-HuNoV monoclonal antibodies; positive when S/N >= 2.0
Test [1] has as its target recombinant C2JVE6 (ATP-dependent zinc metalloprotease) (Lactobacillus rhamnosus YQ001).
For test [2], the target named is recombinant C2JX39 (DNA topoisomerase 4 subunit A) (Lactobacillus rhamnosus YQ001).
Test [3] deals with recombinant C2K0J4 (Penicillin-binding protein, transpeptidase domain protein) (Lactobacillus rhamnosus YQ001).
In test [4] the target is recombinant oyster heat shock protein 70 (oyster).

Sequence of GI.1 HuNoV P protein (domain or fragment) (Q83884 226-530 limits assumed): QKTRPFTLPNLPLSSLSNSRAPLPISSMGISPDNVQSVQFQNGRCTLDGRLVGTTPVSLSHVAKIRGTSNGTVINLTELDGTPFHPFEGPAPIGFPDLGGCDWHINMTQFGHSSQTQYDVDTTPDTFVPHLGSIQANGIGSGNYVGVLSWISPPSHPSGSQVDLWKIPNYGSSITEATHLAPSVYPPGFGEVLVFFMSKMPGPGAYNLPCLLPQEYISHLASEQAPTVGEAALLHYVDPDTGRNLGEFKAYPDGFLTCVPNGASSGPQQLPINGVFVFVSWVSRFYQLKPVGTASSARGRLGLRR

Take “GI.1 HuNoV P protein (domain or fragment)”: the S/N ratio in test [1] was determined as 16.6; in test [2], 16.4; in test [3] it was 16.4; in test [4], 15.5.
Regarding “GII.4 HuNoV P protein (domain or fragment)”, the values for the S/N ratio in test [1], in test [3] and in test [4] were 16.7, 17.3 and 16, respectively.

These data come from publication PMC12628836.
